In patent US20070172470A1, “Phosphatase regulation of nucleic acid transcription” (The Regents of the University of California, priority 2003, published 2007):

T1: GST-SCP1 (Homo sapiens, UniProt Q9GZU7)
T1 construct: made in house
T1 sequence (Q9GZU7 1-261): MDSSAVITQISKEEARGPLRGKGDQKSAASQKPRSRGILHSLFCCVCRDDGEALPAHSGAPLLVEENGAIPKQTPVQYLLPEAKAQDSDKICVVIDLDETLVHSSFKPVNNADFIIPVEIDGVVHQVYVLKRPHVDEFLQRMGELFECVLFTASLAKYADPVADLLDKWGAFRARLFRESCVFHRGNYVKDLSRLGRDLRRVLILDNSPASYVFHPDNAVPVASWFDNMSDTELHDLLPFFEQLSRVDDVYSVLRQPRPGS
T1 sequence (P35269 1-517 partner): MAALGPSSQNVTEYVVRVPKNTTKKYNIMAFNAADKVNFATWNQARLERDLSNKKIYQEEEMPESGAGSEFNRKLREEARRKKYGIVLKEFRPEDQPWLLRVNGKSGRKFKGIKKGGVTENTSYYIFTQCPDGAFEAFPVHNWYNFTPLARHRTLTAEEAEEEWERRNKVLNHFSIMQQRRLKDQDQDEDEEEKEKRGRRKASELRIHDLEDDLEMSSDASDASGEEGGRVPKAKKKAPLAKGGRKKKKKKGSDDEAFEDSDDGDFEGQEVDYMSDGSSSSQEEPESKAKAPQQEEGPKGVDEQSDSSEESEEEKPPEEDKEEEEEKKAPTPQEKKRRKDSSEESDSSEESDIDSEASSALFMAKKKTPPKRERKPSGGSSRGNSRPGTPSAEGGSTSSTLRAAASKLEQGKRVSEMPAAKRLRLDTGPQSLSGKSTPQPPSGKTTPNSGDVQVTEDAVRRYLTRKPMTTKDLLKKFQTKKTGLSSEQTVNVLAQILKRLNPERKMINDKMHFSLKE

T2: SCP1 (Homo sapiens, UniProt Q9GZU7)
T2 construct: GST (N, cleaved yes); made in house
T2 sequence (Q9GZU7 1-260 isoform Q9GZU7-2): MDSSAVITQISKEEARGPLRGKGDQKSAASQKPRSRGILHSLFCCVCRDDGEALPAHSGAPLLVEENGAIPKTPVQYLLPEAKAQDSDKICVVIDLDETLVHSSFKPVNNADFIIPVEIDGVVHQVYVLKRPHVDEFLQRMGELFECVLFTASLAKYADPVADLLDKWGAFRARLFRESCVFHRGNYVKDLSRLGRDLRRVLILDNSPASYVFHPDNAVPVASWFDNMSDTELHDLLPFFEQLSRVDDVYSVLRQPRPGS


Columns and labels:
GST-SCP1 = molecular target: T1, GST-SCP1; assay: Binding of RAP74 to GST-SCP1; settings: not to GST
SCP1 = molecular target: T2, SCP1; assay: Effect of RAP74 on CTD phosphatase activity of SCP1; format: biochemical; settings: 7 pmol RAP74, 14.4 fmol RNAP IIO prepared by TFIIH
Description: Increasing amounts of the indicated forms of SCP1 and SCP2 were assayed in the presence of 14.4 fmol RNAP. IIO prepared by TFIIH. Reactions were carried out in the presence and in the absence of 7 pmol RAP74.
(§1) CTD phosphatase assays utilizing RNAP IIO and GST-CTDo as substrate were performed as described previously (32) with minor modifications. Reactions were performed in 20 μl of CTD phosphatase buffer (50 mM Tris-HCl, pH 7.9, 10 mM MgCl2, 20% glycerol, 0.025% Tween 80, 0.1 mM EDTA, 5 mM DTT) in the presence of 20 mM KCl. Each reaction contained specified amounts of GST-CTDo and/or RNAP IIO and was carried out in the presence of 7 pmol RAP74. Reactions were initiated by the addition of FCP1 or SCP1 and incubated at 30° C. for 30 minutes. Assays were terminated by the addition of 5× Laemmli buffer, and RNAP II subunits and GST-CTD were resolved on a 5% SDS-PAGE gel. The gel images were developed by autoradiography and scanned by Molecular Dynamics Image Scanner Storm 860 in the phosphor screen mode. Data were quantitatively analyzed by ImageQuant software.

[1] = format: biochemical; settings: PNθP as substrate
[2] = system: T3 receptor activity on DR+4 TRE-TK-Luc reporter; assay: Luciferase reporter assay, ligand-activated T3 receptor; format: cell-based, human; settings: 100 nM T3, DR+4 TRE-TK-Luc
Source text: (§2) Gal4-DNA binding domain-SCP1 fusion protein expression plasmids-were cotransfected in HEK293 cells with a Gal 4-TKLuc reporter plasmid and luciferase gene expression quantitated. In all panels, results of triplicate transfections are shown +/− SD. Data is expressed as fold-activation experimental/control). […] The indicated amounts of SCP1 or mutant SCP1 expression plasmids were cotransfected in HEK293 cells along with Gal 4-VP16 expression and Gal 4-TK-Luc reporter plasmids and luciferase activity was quantitated. […] The indicated receptor expression plasmids were cotransfected with their cognate promoter-reporter plasmids with or without SCP1 or mutant SCP1 expression plasmids. Cells were treated or untreated with receptor-specific ligands as described infra. […] The indicated concentrations of SCP1 and mutant SCP1 expression plasmids were cotransfected with LMX1 and E47 expression plasmids and the rat insulin 1 promoter-luciferase reporter gene. Luciferase activity was measured as described.
(§3) Tissue Culture and Transfections: Human 293, COS7 and CV1 cells were grown at 37° C. in DMEM supplemented with 10% normal calf serum (BRL). Sub-confluent cells were transfected in 6 well tissue culture dishes using Effectene (Qiagen) according to the manufacturer's instructions. Reporter and activator plasmids (100 ng each) and Flag SCP1 (80 ng) or its mutant were used per well. […]

[3] = system: ElALuc, pGL3-Luc and Gal4-TATA-Luc constructs; assay: Luciferase reporter assay, basal promoter activity; format: cell-based, human; settings: ElALuc, pGL3-Luc and Gal4-TATA-Luc constructs
Source text: as §2, §3

[4] = system: glucocorticoid receptor activity on GRE-TK-Luc construct; assay: Luciferase reporter assay, dexamethasone-stimulated glucocorticoid receptor; format: cell-based, human; settings: 100 nM dexamethasone
Source text: as §2, §3

[5] = system: P19 mouse embryonic stem cells; assay: Neuronal differentiation of P19 cells; format: cell-based; settings: clonal P19 line, retinoic acid, selective medium
Description: P19 cells, C, differentiated GFP expressing P19 cells; D, differentiated SCP1-expressing P19 cells; F, differentiated REST/NRSF-expressing P19 cells. Numbers of NLC per field are shown. *p=0.001 compared to WT 19 cells; **p=0.008 compared to WT P19 cell using student's t-test.
P19 stably expressing REST/NRSF.
These cell lines were maintained in α-MEM/10%FBS with […] G418. To induce neuronal differentiation, P19 cells were allowed to aggregate in bacterial grade petri-dishes (Fisher) at a seeding density of 1×10^5cells/ml in the presence of 1×10^−6M all-trans retinoic acid. After 3 days of aggregation, cells were dissociated into single cells by 0.05% trypsin-0.53 mM EDTA (Gibco). Trypsin was removed by centrifugation and the cells were plated in 6 cm tissue culture dishes (Nunc). at a density of 1×10^5 cells/cm^2 in Neurobasal medium/N2 supplement (Invitrogen) in the presence or absence of 1 μg/ml fibronectin (Invitrogen). The cells were cultured for 5 days after which average cell numbers/field were determined. Cells were either lysed to prepare total RNA (Rneasy kit, Qiagen) or stained with TuJ1 antibody (Babco).
For immunostaining, cells were fixed for 10 mins with 4% paraformaldehyde. TuJ1 antibody was used at 1:2000 and secondary antibody used was FITC-conjuagated anti-mouse (1:3000).

[6] = system: PPARγ receptor activity on PPARγ promoter response element; assay: Luciferase reporter assay, ligand-activated PPARγ receptor; format: cell-based, human
Source text: as §2, §3

RNAP IIO = molecular target: T3, RNAP IIO (Bos taurus, UniProt G3MZY8); assay: CTD phosphatase assay with RNAP IIO as substrate; format: biochemical, calf; settings: substrates prepared by MAPK2/ERK2
T3 construct: Calf thymus RNAP IIA was purified; from tissue; host or cells: calf thymus
Description: FIGS. 2C and 2D show a CTD phosphatase assay of FCP1 and SCP1 on GST-CTDo and RNAP IIO prepared by MAPK2/ERK2. Increasing amounts of FCP1 or GST-SCP1 214 were assayed in the presence of 75 fmol GST-CTDo (lanes 1-6), 75 fmol RNAP IIO (lanes 7-12), or 75 fmol GST-CTDo and 75. fmol RNAP IIO (lanes 13-18). Both GST-CTDo and RNAP IIO substrates were prepared by the in vitro phosphorylation of CKII-labeled GST-CTDa or RNAP IIA by MAPK2/ERK2. All reactions were carried out in the presence of 7 pmol RAP74. CTD dephosphorylation of both GST-CTDo and RNAP IIO is shown by the increase in mobility of GST-CTDo to GST-CTDa and subunit IIo to IIa, respectively. The difference in the intensity of radiolabeled GST-CTDoand that of radiolabeled subunit IIo is not a reflection of a difference in the amount of substrates present, but of the higher efficiency with which CKII incorporates radiolabeled phosphates onto the most C-terminal serine of GST-CTDa compared to subunit. IIa.
Increasing amounts of GST-SCP1 214 were assayed in the presence of 3.7 fmol RNAP IIO prepared by CTDK1/CTDK2, TFIIH, P-TEFb, MAPK2/ERK2 and Cdc2 kinase. All reactions were carried out in-the presence of 7 pmol. RAP74. CTD dephosphorylation of RNAP IIO isozymes. by qSTSCP1 214 is shown by an increase in mobility of subunit IIo to that of IIa. The results are summarized in the graph showing the percent of RNAP IIO remaining as a function of increasing SCP1 concentrations.
Preparation and Purification of ^32P-RNAP IIO Isozymess and ^32P-GST-CTDo: Calf thymus RNAP IIA was purified by the method of Hodo and Blatti (30) with modifications as described by Kang and Dahmus (31). Specific isozymes of ^32p-labeled RNAP IIO were prepared by phosphorylation at the most C-terminal serine (CKII site) in the largest subunit of purified RNAP IIA with recombinant CKII and […], followed by CTD phosphorylation in the presence of 2 mM ATP with either purified CTDK1/CTDK2, TFIIH, P-TEFb, recombinant MAPK2/ERK2 or recombinant Cdc2 kinase. The RNAP IIO isozymes were individually purified over a DE53 column with a step elution of 500 mM KCl (28). Because only the most C-terminal serine is labeled with ^32p and lies outside. the consensus repeat, dephosphorylation by CTD phosphatase results in an electrophoretic mobility shift in SDS-PAGE of subunit IIo to the position of subunit IIa without the loss of label. Similarly, ^32P-labeled GST-CTDo was prepared from GST-CTDa by CKII followed by MAPK2/ERK2. GST-CTDo was purified over a glutathione-agarose column with a step elution of 15 mM glutathione.
as §1

[7] = system: Gal 4-TK-Luc reporter stimulated by Gal 4-VP16; assay: Luciferase reporter assay, Gal 4-VP16 stimulated gene expression; format: cell-based, human; settings: HEK293 cells
Source text: as §2, §3

Row | Molecule | binding to GST-SCP1 (GST-SCP1) | shift of the dose response curve for SCP1 catalyzed dephosphorylation of RNAP IIO to lower concentration (SCP1) | phosphatase activity [1] | ligand-activated T3 receptor activity [2] | increase of luciferase activity [3] | dexamethasone-stimulated glucocorticoid receptor activity [4] | increase of the extent of precursor differentiation into neurons [5] [fold] | ligand-activated PPARγ receptor activity [6] | CTD phosphatase activity on GST-CTDo and RNAP IIO (RNAP IIO) | enhancement of Gal 4-VP16 stimulated activity [7]
1 | RAP74: RAP74 subunit of TFIIF (protein) MAALGPSSQNVTEYVVRVPKNTTKKYNIMAFNAADKVNFATWNQARLERDLSNKKIYQEEEMPESGAGSEFNRKLREEARRKKYGIVLKEFRPEDQPWLLRVNGKSGRKFKGIKKGGVTENTSYYIFTQCPDGAFEAFPVHNWYNFTPLARHRTLTAEEAEEEWERRNKVLNHFSIMQQRRLKDQDQDEDEEEKEKRGRRKASELRIHDLEDDLEMSSDASDASGEEGGRVPKAKKKAPLAKGGRKKKKKKGSDDEAFEDSDDGDFEGQEVDYMSDGSSSSQEEPESKAKAPQQEEGPKGVDEQSDSSEESEEEKPPEEDKEEEEEKKAPTPQEKKRRKDSSEESDSSEESDIDSEASSALFMAKKKTPPKRERKPSGGSSRGNSRPGTPSAEGGSTSSTLRAAASKLEQGKRVSEMPAAKRLRLDTGPQSLSGKSTPQPPSGKTTPNSGDVQVTEDAVRRYLTRKPMTTKDLLKKFQTKKTGLSSEQTVNVLAQILKRLNPERKMINDKMHFSLKE | bound directly | approximately 10 fold |  |  |  |  |  |  |  | 
2 | mutant SCP1: D96E, D98N phosphatase-inactive dominant negative mutant of SCP1 261, SEQ ID NO:10 (protein, Drosophila) MDSSAVITQISKEEARGPLRGKGDQKSAASQKPRSRGILHSLFCCVCRDDGEALPAHSGAPLLVEENGAIPKTPVQYLLPEAKAQDSDKICVVIELNETLVHSSFKPVNNADFIIPVEIDGVVHQVYVLKRPHVDEFLQRMGELFECVLFTASLAKYADPVADLLDKWGAFRARLFRESCVFHRGNYVKDLSRLGRDLRRVLILDNSPASYVFHPDNAVPVASWFDNMSDTELHDLLPFFEQLSRVDDVYSVLRQPRPGS |  |  | inactive | enhanced | 1.5- to 6 fold | significantly enhanced | > 2 | enhanced | lacked activity on either substrate | about 2 fold
